Results on 19 molecules are retold here after patent US20260337278 (published 2026).

B1: SI-95X56 (antibody)
chain 1: not shown
chain 2: DIVMTQSPSSVSLSLGDRVTITCHSSQDINSNIGWLQQKPGKAFKGLIYHGTNLDDGVPSRFSGSGSGADYTLTISSLQAEDFATYYCVQYAQFPWTFGPGTKLEIKRTVAAPSVFIFPPSDEQLKSGTASVVCLLNNFYPREAKVQWKVDNALQSGNSQESVTEQDSKDSTYSLSSTLTLSKADYEKHKVYACEVTHQGLSSPVTKSFNRGEC
B2: SI-95X54 (antibody)
chain 1: not shown
chain 2: B1 chain 2
B3: SI-95X53 (antibody)
chain 1: not shown
chain 2: B1 chain 2
B4: SI-95X52 (antibody)
chain 1: not shown
chain 2: B1 chain 2
B5: SI-95X58 (antibody)
chain 1: not shown
chain 2: EIVLTQSPSTLSVSPGERATFSCRASQSIGTNIHWYQQKPGKPPRLLIKYASESISGIPDRFSGSGSGTEFTLTISSVQSEDFAVYYCQQNNNWPTTFGPGTKLTVLRTVAAPSVFIFPPSDEQLKSGTASVVCLLNNFYPREAKVQWKVDNALQSGNSQESVTEQDSKDSTYSLSSTLTLSKADYEKHKVYACEVTHQGLSSPVTKSFNRGECGGGGSGGGGGSGGGGSGGGGSQVQLQESGPSLVKPSQTLSLTCTVSGYSITSDFAWNWIRQFPGRKLEWMGYISYSGNTRYNPSLKSRFTISRDTSKNQFYLKLRSVTIADTAVYYCVTAGRGFPYWGQGTLVTVSSGGGGSGGGGSGGGGSDIVMTQSPSSVSLSLGDRVTITCHSSQDINSNIGWLQQKPGKAFKGLIYHGTNLDDGVPSRFSGSGSGADYTLTISSLQAEDFATYYCVQYAQFPWTFGPGTKLEIK
B6: SI-95X62 (antibody)
chain 1: not shown
chain 2: B5 chain 2 with N92F
B7: SI-95X57 (antibody)
chain 1: not shown
chain 2: B5 chain 2
B8: SI-95X60 (antibody)
chain 1: not shown
chain 2: B5 chain 2
B9: SI-95X59 (antibody)
chain 1: not shown
chain 2: B5 chain 2
B10: SI-95X61 (antibody)
chain 1: not shown
chain 2: B5 chain 2
B11: SI-95X44 (antibody)
chain 1: not shown
chain 2: DILMTQSPSSMSVSLGDTVSITCHSSQDINSNIGWLQQRPGKSFKGLIYHGTNLDDEVPSRFSGSGSGADYSLTISSLESEDFADYYCVQYAQFPWTFGGGTKLEIKRTVAAPSVFIFPPSDEQLKSGTASVVCLLNNFYPREAKVQWKVDNALQSGNSQESVTEQDSKDSTYSLSSTLTLSKADYEKHKVYACEVTHQGLSSPVTKSFNRGEC
B12: SI-95X67 (antibody)
chain 1: not shown
chain 2: B11 chain 2
B13: SI-95X66 (antibody)
chain 1: not shown
chain 2: B11 chain 2
B14: SI-95X65 (antibody)
chain 1: not shown
chain 2: B11 chain 2
B15: SI-95X40 (antibody)
chain 1: not shown
chain 2: DIQMTQSPSSLSASVGDRVTITCRSSQNIVHSNGNTYLDWYQQTPGKAPKLLIYKVSNRFSGVPSRFSGSGSGTDFTFTISSLQPEDIATYYCFQYSHVPWTFGQGTKLQITRTVAAPSVFIFPPSDEQLKSGTASVVCLLNNFYPREAKVQWKVDNALQSGNSQESVTEQDSKDSTYSLSSTLTLSKADYEKHKVYACEVTHQGLSSPVTKSFNRGEC
B16: SI-95X45 (antibody)
chain 1: not shown
chain 2: EIVLTQSPSTLSVSPGERATFSCRASQSIGTNIHWYQQKPGKPPRLLIKYASESISGIPDRFSGSGSGTEFTLTISSVQSEDFAVYYCQQNNNWPTTFGPGTKLTVLRTVAAPSVFIFPPSDEQLKSGTASVVCLLNNFYPREAKVQWKVDNALQSGNSQESVTEQDSKDSTYSLSSTLTLSKADYEKHKVYACEVTHQGLSSPVTKSFNRGEC
B17: SI-95X48 (antibody)
chain 1: not shown
chain 2: B16 chain 2
B18: SI-95X47 (antibody)
chain 1: not shown
chain 2: B16 chain 2
B19: SI-95X50 (antibody)
chain 1: not shown
chain 2: B16 chain 2

Residue numbers refer to the chain shown, from its start.

One assay concerns the target EGFRvIII (human, UniProt P00533). Description: BLI.
B1: the dissociation constant (Kd) stood at 1.93 nM.
In the case of B2, the equilibrium dissociation constant (Kd) was 1.37 nM.
The same measure, in the same setting: next, B3: 1.28 nM; B4: 1.47 nM.
On to B5, for which binding was put at a Kd of 0.807 nM.
On the same count and under the same terms, the result for B6 reads 1.02 nM.
Still for that read-out and setting: next, B7: 0.549 nM.
Same read-out and setting: the result for B8 reads 1.95 nM; that for B9, 1.03 nM.
Take B10: the Kd was 0.573 nM.
Still for that read-out and setting: next, B11: 0.466 nM; B12: 1.24 nM; B13: 0.576 nM.
With B14, the affinity, expressed as Kd, was 0.804 nM.
In turn, B15 displayed a Kd of 1.16 nM.
The same measure, in the same setting: the result for B16 reads 1.11 nM; that for B17, 0.404 nM; that for B18, 0.272 nM.
Still for that read-out and setting: the result for B19 reads 0.207 nM.

The target in another assay is EGFR (wild-type, His-tagged or biotinylated) (human, UniProt P00533). Description: BLI. For orientation: Biolayer interferometry detects binding as a change in optical thickness at a sensor tip.
B1 displayed a Kd of 6.88 nM.
Still for that read-out and setting: the result for B2 reads 25.7 nM.
Same read-out and setting: next, B3: 18.2 nM.
B4 had a Kd of 19.3 nM.
Same read-out and setting: the result for B5 reads 16 nM; that for B6, 8.16 nM; that for B7, 0.768 nM.
Molecule B8 had a dissociation constant Kd of 4.98 nM.
The molecule B9 gave a dissociation constant (Kd) of 23.6 nM.
The molecule B10 had a Kd of 4.89 nM.
The molecule B11 came in with a Kd of 1.81 nM.
Same read-out and setting: the result for B12 reads 7.06 nM.
Same read-out and setting: next, B13: 4.65 nM.
B14 had a Kd of 3.07 nM.
Take B15: the Kd came out at 0.954 nM.
For B16, the Kd worked out at 4.61 nM.
Still for that read-out and setting: next, B17: 25.5 nM; B18: 20.6 nM; B19: 1.38 nM.

The Kd is a measure of binding affinity in units of concentration. The low end stands for tighter binding, the high end for weaker binding.
